Results taken from US20200087395 (published 2020).

Assays:
FcγRIIIA_158F ECD = FcγRIIIA_158F ECD (human, UniProt P08637); assay: SPR, 25C
[1] = target: T1, cynomolgus CD200RLa (activating form) (cynomolgus monkey); assay: SPR, 37C
T1 chain: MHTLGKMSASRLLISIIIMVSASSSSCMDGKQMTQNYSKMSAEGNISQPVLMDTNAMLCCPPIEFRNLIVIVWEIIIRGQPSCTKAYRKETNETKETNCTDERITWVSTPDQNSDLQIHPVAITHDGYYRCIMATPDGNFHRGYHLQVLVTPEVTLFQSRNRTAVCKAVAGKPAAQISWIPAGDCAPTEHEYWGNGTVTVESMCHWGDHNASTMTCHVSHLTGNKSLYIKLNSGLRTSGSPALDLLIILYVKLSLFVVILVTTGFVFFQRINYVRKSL

[2] = target: T1, cynomolgus CD200RLa (activating form); assay: FACS
mouse CD200R = target: T2, mouse CD200R (mouse, UniProt Q9ES57); assay: SPR, 37C
T2 chain: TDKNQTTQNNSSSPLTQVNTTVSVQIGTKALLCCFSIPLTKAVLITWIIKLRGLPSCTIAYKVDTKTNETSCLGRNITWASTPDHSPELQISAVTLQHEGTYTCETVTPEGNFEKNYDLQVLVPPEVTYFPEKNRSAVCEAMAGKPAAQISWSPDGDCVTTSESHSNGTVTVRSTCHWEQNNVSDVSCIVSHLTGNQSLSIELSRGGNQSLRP

FcγRIIIA_158F ECD, sequence (P08637 17-208): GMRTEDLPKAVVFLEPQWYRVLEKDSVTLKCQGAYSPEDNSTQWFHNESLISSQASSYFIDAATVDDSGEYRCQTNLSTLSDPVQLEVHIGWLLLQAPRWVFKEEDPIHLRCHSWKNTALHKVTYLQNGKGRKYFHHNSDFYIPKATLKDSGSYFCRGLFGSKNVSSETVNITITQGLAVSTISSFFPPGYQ

B1: Antibody I-4P (antibody)
chain 1: not shown
chain 2: EIVLTQSPDFQSVTPKEKVTITCQASESIDSYLLWYQQKPDQSPKLLIKQASTLASGVPSRFSGSGSGTDFTLTINSLEAEDAATYYCQNYYDISSNDFGGGTKVEIKRTVAAPSVFIFPPSDEQLKSGTASVVCLLNNFYPREAKVQWKVDNALQSGNSQESVTEQDSKDSTYSLSSTLTLSKADYEKHKVYACEVTHQGLSSPVTKSFNRGEC
modifications: listing feature
With B1 the Kd (FcγRIIIA_158F ECD) was > 10 µM, the Kd [1] was 2.5 µM and the binding result [2] was “no binding”. For the same binder, the Kd (mouse CD200R) was > 10 µM.
